# Assay results: patent US20150010572A1 (SAMSUNG ELECTRONICS, published 2015)
# Positions count from the first letter of the chain named.
# T1: recombinant hAng-2 (C-His, R&D Systems) (human, UniProt O15123 19-496)
# T1 construct: Bought protein; also called human Ang-2 protein; not shown: C-terminal His tag
# T1 sequence: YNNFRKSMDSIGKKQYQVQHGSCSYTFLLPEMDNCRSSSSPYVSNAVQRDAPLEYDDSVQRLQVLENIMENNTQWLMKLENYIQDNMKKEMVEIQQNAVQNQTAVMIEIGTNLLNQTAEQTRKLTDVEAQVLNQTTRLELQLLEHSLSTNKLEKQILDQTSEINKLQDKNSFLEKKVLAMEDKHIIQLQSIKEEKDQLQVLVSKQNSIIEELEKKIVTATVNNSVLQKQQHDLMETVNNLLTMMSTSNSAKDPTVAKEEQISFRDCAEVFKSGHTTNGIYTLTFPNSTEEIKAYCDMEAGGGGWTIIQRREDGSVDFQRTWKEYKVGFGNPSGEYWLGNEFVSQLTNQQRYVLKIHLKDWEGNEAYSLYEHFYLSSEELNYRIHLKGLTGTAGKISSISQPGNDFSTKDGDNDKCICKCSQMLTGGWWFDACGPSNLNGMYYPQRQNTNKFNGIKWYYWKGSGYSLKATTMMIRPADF
# B1: SAIT-Ang-2-AB-m8B3 (antibody, V domains shown)
# VH: DVQLQESGPGLVKPSQSLSLSCTVTGYSIASDYAWNWIRQFPGNKVEWMGYINYRGNTDYNPSLKSRSSINRDTSKNQFFLQLNSVTTGDTATYYCARGNFEGAMDYWGQGTSVTVSS
# VL: TIVMTQTPKFLLVSAGDRITITCKASQSVSNDVAWYQQKPGQSPKLLIYYASNRYPGVPDRFTGSGYGTDFTFTISTVQAEDLAVYFCQQDYTSPWTFGGGTELEIK
# notes: also called KCLRF-BP-00293
# B2: SAIT-Ang-2-AB-m2E7 (antibody, V domains shown)
# VH: DLQLQESGPGLVKPSQSLSLTCTVTGYSITSDYAWNWIRQFPGNKLEWMGYISYSGSTSYNPSLKSRISITRDTSKNQFFLQLNSLTTEDTATYYCARGDYGNYVGPMDYWGQGTSVTVSS
# VL: B1 VL with T1S, I19V, Q37R, P56T, T93S, W96L, G100A, G101R, E103K, I106L
# notes: also called KCLRF-BP-00294
# Experiments:
# [1] = target: mutant Ang-2 protein, A449 substituted with alanine (FLAG-tagged at N-terminal) (human) (UniProt O15123); assay: ELISA, antibody coated, 250 ng FLAG-tagged mutant Ang-2, anti-FLAG-HRP, OD450 relative to native Ang-2
# [2] = target: T1, recombinant hAng-2 (C-His, R&D Systems); assay: SPR, BIAcore T100; hAng-2 (C-His) captured by anti-His antibody on CM5 chip, antibody flowed
# Procedure: The binding affinities of the above 3 kinds of antibodies to human Ang-2 protein were measured by a SPR technology using a BIAcore T100 (GE Healthcare). The SPR technology uses refractive index change of light which passes a sensor chip according to the state of materials coated onto the sensor chip, and if an antigen or an antibody is flowed onto a chip coated with the antigen or antibody, it causes changes in refractive index due to their binding and Kd values are thus calculated from the measured values.
# First, anti-His antibody was immobilized on a CM5 sensor chip (GE healthcare) up to 8,000 RU levels using a pH 5.0 acetate solution and an amine coupling kit (GE Healthcare). A recombinant hAng-2 (C-His, R&D Systems) protein was flowed onto the chip to be captured at 100 to 200 RU levels.
Binder,% at RBD binding (mutant Ang-2 against native Ang-2) [1],Kd [2]
B1,88.5%,0.0086 nM
B2,90.9%,30.6 nM
